For six molecules, EC50 [nM], 0% HSA and EC50 [nM], 0.1% HSA results are on record in patent US12679878B2, “CRF2 receptor agonists and their use in therapy” (SANOFI, priority 2020, dated 2026).

This assay addresses human corticotropin-releasing factor 2α (CRF2 α receptor) (human), Q13324. The experiment in a line: cell-based or functional assay.

Starred links: 1 amine or outer side, 2 acyl side, 3 side chain; linkers in the order of their positions; H or OH if unused. Non-standard residues stand in square brackets, D forms with d. Groups on a side chain read outwards from the residue. No end group written: not given here. *: point of attachment. C18 diacid = O=C(O)CCCCCCCCCCCCCCCCC(=O)*; γGlu = O=C(O)[C@H](CCC(=O)[*:2])N[*:1]; Palmitoyl = CCCCCCCCCCCCCCCC(=O)*; AEEA = NCCOCCOCC(=O)O; Aib = CC(C)(N)C(=O)O

human corticotropin-releasing factor 2α (CRF2 α receptor) (human), Q13324, sequence (Q13324 20-411): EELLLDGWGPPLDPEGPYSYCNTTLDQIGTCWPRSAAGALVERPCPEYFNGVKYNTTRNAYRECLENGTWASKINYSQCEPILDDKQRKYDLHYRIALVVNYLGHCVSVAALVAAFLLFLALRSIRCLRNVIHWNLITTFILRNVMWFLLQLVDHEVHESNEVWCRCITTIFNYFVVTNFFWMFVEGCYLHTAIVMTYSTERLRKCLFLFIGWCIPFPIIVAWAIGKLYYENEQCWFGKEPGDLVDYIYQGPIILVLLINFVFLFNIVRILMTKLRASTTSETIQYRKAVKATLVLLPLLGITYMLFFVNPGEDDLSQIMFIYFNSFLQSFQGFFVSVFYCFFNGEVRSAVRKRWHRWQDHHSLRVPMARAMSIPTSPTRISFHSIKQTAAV

B1: SEQ ID NO: 136 (peptide)
peptide: IVLSLD[dV]PIKLK([AEEA-AEEA-γGlu-C18 diacid])QILLKQERQKK[Aib]RQKAEKNKQILAQV-NH2
modifications: N-terminus assumed
SMILES: CC[C@H](C)[C@H](N)C(=O)N[C@H](C(=O)N[C@@H](CC(C)C)C(=O)N[C@@H](CO)C(=O)N[C@@H](CC(C)C)C(=O)N[C@@H](CC(=O)O)C(=O)N[C@@H](C(=O)N1CCC[C@H]1C(=O)N[C@H](C(=O)N[C@@H](CCCCN)C(=O)N[C@@H](CC(C)C)C(=O)N[C@@H](CCCCNC(=O)COCCOCCNC(=O)COCCOCCNC(=O)CC[C@H](NC(=O)CCCCCCCCCCCCCCCCC(=O)O)C(=O)O)C(=O)N[C@@H](CCC(N)=O)C(=O)N[C@H](C(=O)N[C@@H](CC(C)C)C(=O)N[C@@H](CC(C)C)C(=O)N[C@@H](CCCCN)C(=O)N[C@@H](CCC(N)=O)C(=O)N[C@@H](CCC(=O)O)C(=O)N[C@@H](CCCNC(=N)N)C(=O)N[C@@H](CCC(N)=O)C(=O)N[C@@H](CCCCN)C(=O)N[C@@H](CCCCN)C(=O)NC(C)(C)C(=O)N[C@@H](CCCNC(=N)N)C(=O)N[C@@H](CCC(N)=O)C(=O)N[C@@H](CCCCN)C(=O)N[C@@H](C)C(=O)N[C@@H](CCC(=O)O)C(=O)N[C@@H](CCCCN)C(=O)N[C@@H](CC(N)=O)C(=O)N[C@@H](CCCCN)C(=O)N[C@@H](CCC(N)=O)C(=O)N[C@H](C(=O)N[C@@H](CC(C)C)C(=O)N[C@@H](C)C(=O)N[C@@H](CCC(N)=O)C(=O)N[C@H](C(N)=O)C(C)C)[C@@H](C)CC)[C@@H](C)CC)[C@@H](C)CC)C(C)C)C(C)C
In the case of B1, the EC50 [nM], 0% HSA was found to be 0.05 nM and the EC50 [nM], 0.1% HSA was 2.41 nM.

B2: SEQ ID NO: 14 (peptide)
peptide: FTLSLDVPTKIK([γGlu-Palmitoyl])QKLLKQEKQRKQKQKAKTNAKILARV-NH2
modifications: N-terminus assumed
SMILES: CCCCCCCCCCCCCCCC(=O)N[C@@H](CCC(=O)NCCCC[C@H](NC(=O)[C@@H](NC(=O)[C@H](CCCCN)NC(=O)[C@@H](NC(=O)[C@@H]1CCCN1C(=O)[C@@H](NC(=O)[C@H](CC(=O)O)NC(=O)[C@H](CC(C)C)NC(=O)[C@H](CO)NC(=O)[C@H](CC(C)C)NC(=O)[C@@H](NC(=O)[C@@H](N)Cc1ccccc1)[C@@H](C)O)C(C)C)[C@@H](C)O)[C@@H](C)CC)C(=O)N[C@@H](CCC(N)=O)C(=O)N[C@@H](CCCCN)C(=O)N[C@@H](CC(C)C)C(=O)N[C@@H](CC(C)C)C(=O)N[C@@H](CCCCN)C(=O)N[C@@H](CCC(N)=O)C(=O)N[C@@H](CCC(=O)O)C(=O)N[C@@H](CCCCN)C(=O)N[C@@H](CCC(N)=O)C(=O)N[C@@H](CCCNC(=N)N)C(=O)N[C@@H](CCCCN)C(=O)N[C@@H](CCC(N)=O)C(=O)N[C@@H](CCCCN)C(=O)N[C@@H](CCC(N)=O)C(=O)N[C@@H](CCCCN)C(=O)N[C@@H](C)C(=O)N[C@@H](CCCCN)C(=O)N[C@H](C(=O)N[C@@H](CC(N)=O)C(=O)N[C@@H](C)C(=O)N[C@@H](CCCCN)C(=O)N[C@H](C(=O)N[C@@H](CC(C)C)C(=O)N[C@@H](C)C(=O)N[C@@H](CCCNC(=N)N)C(=O)N[C@H](C(N)=O)C(C)C)[C@@H](C)CC)[C@@H](C)O)C(=O)O
Turning to B2, the EC50 [nM], 0% HSA came out at 0.18 nM.

B3: SEQ ID NO: 138 (peptide)
peptide: IVLSLD[dV]PIKLK([AEEA-AEEA-γGlu-C18 diacid])QILLKQERQKKQREKAEKNKQILAQV-NH2
modifications: N-terminus assumed
SMILES: CC[C@H](C)[C@H](N)C(=O)N[C@H](C(=O)N[C@@H](CC(C)C)C(=O)N[C@@H](CO)C(=O)N[C@@H](CC(C)C)C(=O)N[C@@H](CC(=O)O)C(=O)N[C@@H](C(=O)N1CCC[C@H]1C(=O)N[C@H](C(=O)N[C@@H](CCCCN)C(=O)N[C@@H](CC(C)C)C(=O)N[C@@H](CCCCNC(=O)COCCOCCNC(=O)COCCOCCNC(=O)CC[C@H](NC(=O)CCCCCCCCCCCCCCCCC(=O)O)C(=O)O)C(=O)N[C@@H](CCC(N)=O)C(=O)N[C@H](C(=O)N[C@@H](CC(C)C)C(=O)N[C@@H](CC(C)C)C(=O)N[C@@H](CCCCN)C(=O)N[C@@H](CCC(N)=O)C(=O)N[C@@H](CCC(=O)O)C(=O)N[C@@H](CCCNC(=N)N)C(=O)N[C@@H](CCC(N)=O)C(=O)N[C@@H](CCCCN)C(=O)N[C@@H](CCCCN)C(=O)N[C@@H](CCC(N)=O)C(=O)N[C@@H](CCCNC(=N)N)C(=O)N[C@@H](CCC(=O)O)C(=O)N[C@@H](CCCCN)C(=O)N[C@@H](C)C(=O)N[C@@H](CCC(=O)O)C(=O)N[C@@H](CCCCN)C(=O)N[C@@H](CC(N)=O)C(=O)N[C@@H](CCCCN)C(=O)N[C@@H](CCC(N)=O)C(=O)N[C@H](C(=O)N[C@@H](CC(C)C)C(=O)N[C@@H](C)C(=O)N[C@@H](CCC(N)=O)C(=O)N[C@H](C(N)=O)C(C)C)[C@@H](C)CC)[C@@H](C)CC)[C@@H](C)CC)C(C)C)C(C)C
For B3, the EC50 [nM], 0% HSA was 0.06 nM and the EC50 [nM], 0.1% HSA amounted to 3.12 nM.

B4: SEQ ID NO: 137 (peptide)
peptide: IVLSLD[dV]PIKLK([AEEA-AEEA-γGlu-C18 diacid])QILLKQERQKKQREQAEKNKQILEQV-NH2
modifications: N-terminus assumed
SMILES: CC[C@H](C)[C@H](N)C(=O)N[C@H](C(=O)N[C@@H](CC(C)C)C(=O)N[C@@H](CO)C(=O)N[C@@H](CC(C)C)C(=O)N[C@@H](CC(=O)O)C(=O)N[C@@H](C(=O)N1CCC[C@H]1C(=O)N[C@H](C(=O)N[C@@H](CCCCN)C(=O)N[C@@H](CC(C)C)C(=O)N[C@@H](CCCCNC(=O)COCCOCCNC(=O)COCCOCCNC(=O)CC[C@H](NC(=O)CCCCCCCCCCCCCCCCC(=O)O)C(=O)O)C(=O)N[C@@H](CCC(N)=O)C(=O)N[C@H](C(=O)N[C@@H](CC(C)C)C(=O)N[C@@H](CC(C)C)C(=O)N[C@@H](CCCCN)C(=O)N[C@@H](CCC(N)=O)C(=O)N[C@@H](CCC(=O)O)C(=O)N[C@@H](CCCNC(=N)N)C(=O)N[C@@H](CCC(N)=O)C(=O)N[C@@H](CCCCN)C(=O)N[C@@H](CCCCN)C(=O)N[C@@H](CCC(N)=O)C(=O)N[C@@H](CCCNC(=N)N)C(=O)N[C@@H](CCC(=O)O)C(=O)N[C@@H](CCC(N)=O)C(=O)N[C@@H](C)C(=O)N[C@@H](CCC(=O)O)C(=O)N[C@@H](CCCCN)C(=O)N[C@@H](CC(N)=O)C(=O)N[C@@H](CCCCN)C(=O)N[C@@H](CCC(N)=O)C(=O)N[C@H](C(=O)N[C@@H](CC(C)C)C(=O)N[C@@H](CCC(=O)O)C(=O)N[C@@H](CCC(N)=O)C(=O)N[C@H](C(N)=O)C(C)C)[C@@H](C)CC)[C@@H](C)CC)[C@@H](C)CC)C(C)C)C(C)C
For B4, the EC50 [nM], 0% HSA came out at 0.04 nM and the EC50 [nM], 0.1% HSA stood at 1.78 nM.

B5: SEQ ID NO: 135 (peptide)
peptide: IVLSLD[dV]PIKLK([AEEA-AEEA-γGlu-C18 diacid])QILLKQERQK[Aib]QRQQAEKNKQILAQV-NH2
modifications: N-terminus assumed
SMILES: CC[C@H](C)[C@H](N)C(=O)N[C@H](C(=O)N[C@@H](CC(C)C)C(=O)N[C@@H](CO)C(=O)N[C@@H](CC(C)C)C(=O)N[C@@H](CC(=O)O)C(=O)N[C@@H](C(=O)N1CCC[C@H]1C(=O)N[C@H](C(=O)N[C@@H](CCCCN)C(=O)N[C@@H](CC(C)C)C(=O)N[C@@H](CCCCNC(=O)COCCOCCNC(=O)COCCOCCNC(=O)CC[C@H](NC(=O)CCCCCCCCCCCCCCCCC(=O)O)C(=O)O)C(=O)N[C@@H](CCC(N)=O)C(=O)N[C@H](C(=O)N[C@@H](CC(C)C)C(=O)N[C@@H](CC(C)C)C(=O)N[C@@H](CCCCN)C(=O)N[C@@H](CCC(N)=O)C(=O)N[C@@H](CCC(=O)O)C(=O)N[C@@H](CCCNC(=N)N)C(=O)N[C@@H](CCC(N)=O)C(=O)N[C@@H](CCCCN)C(=O)NC(C)(C)C(=O)N[C@@H](CCC(N)=O)C(=O)N[C@@H](CCCNC(=N)N)C(=O)N[C@@H](CCC(N)=O)C(=O)N[C@@H](CCC(N)=O)C(=O)N[C@@H](C)C(=O)N[C@@H](CCC(=O)O)C(=O)N[C@@H](CCCCN)C(=O)N[C@@H](CC(N)=O)C(=O)N[C@@H](CCCCN)C(=O)N[C@@H](CCC(N)=O)C(=O)N[C@H](C(=O)N[C@@H](CC(C)C)C(=O)N[C@@H](C)C(=O)N[C@@H](CCC(N)=O)C(=O)N[C@H](C(N)=O)C(C)C)[C@@H](C)CC)[C@@H](C)CC)[C@@H](C)CC)C(C)C)C(C)C
On to B5, for which the EC50 [nM], 0% HSA worked out at 0.04 nM and the EC50 [nM], 0.1% HSA was 1.48 nM.

B6: SEQ ID NO: 139 (peptide)
peptide: IVLSLD[dV]PIKLK([AEEA-AEEA-γGlu-C18 diacid])QILLKQERQKKQRQQAEKNKQILAQV-NH2
modifications: N-terminus assumed
SMILES: CC[C@H](C)[C@H](N)C(=O)N[C@H](C(=O)N[C@@H](CC(C)C)C(=O)N[C@@H](CO)C(=O)N[C@@H](CC(C)C)C(=O)N[C@@H](CC(=O)O)C(=O)N[C@@H](C(=O)N1CCC[C@H]1C(=O)N[C@H](C(=O)N[C@@H](CCCCN)C(=O)N[C@@H](CC(C)C)C(=O)N[C@@H](CCCCNC(=O)COCCOCCNC(=O)COCCOCCNC(=O)CC[C@H](NC(=O)CCCCCCCCCCCCCCCCC(=O)O)C(=O)O)C(=O)N[C@@H](CCC(N)=O)C(=O)N[C@H](C(=O)N[C@@H](CC(C)C)C(=O)N[C@@H](CC(C)C)C(=O)N[C@@H](CCCCN)C(=O)N[C@@H](CCC(N)=O)C(=O)N[C@@H](CCC(=O)O)C(=O)N[C@@H](CCCNC(=N)N)C(=O)N[C@@H](CCC(N)=O)C(=O)N[C@@H](CCCCN)C(=O)N[C@@H](CCCCN)C(=O)N[C@@H](CCC(N)=O)C(=O)N[C@@H](CCCNC(=N)N)C(=O)N[C@@H](CCC(N)=O)C(=O)N[C@@H](CCC(N)=O)C(=O)N[C@@H](C)C(=O)N[C@@H](CCC(=O)O)C(=O)N[C@@H](CCCCN)C(=O)N[C@@H](CC(N)=O)C(=O)N[C@@H](CCCCN)C(=O)N[C@@H](CCC(N)=O)C(=O)N[C@H](C(=O)N[C@@H](CC(C)C)C(=O)N[C@@H](C)C(=O)N[C@@H](CCC(N)=O)C(=O)N[C@H](C(N)=O)C(C)C)[C@@H](C)CC)[C@@H](C)CC)[C@@H](C)CC)C(C)C)C(C)C
Consider B6, for which the EC50 [nM], 0% HSA was 0.03 nM and the EC50 [nM], 0.1% HSA stood at 1.31 nM.
